Reference: article PMC10180074, “Improved Stability and Catalytic Efficiency of ω-Transaminase in Aqueous Mixture of Deep Eutectic Solvents” (Molecules, 2023)

Key:
CC(=O)C(=O)O = assay: Michaelis-Menten fit; acetophenone by HPLC; type: biochemical, Aspergillus terreus; details: phosphate buffer, no DES, 1-(R)-PEA co-substrate, PLP, pH 8.0, 40 °C
Source text: (§1) Michaelis-Menten fit; acetophenone by HPLC on ω-TA variant from Aspergillus terreus (E133A)

C[C@@H](N)c1ccccc1 = assay: Michaelis-Menten fit; acetophenone by HPLC; type: biochemical, Aspergillus terreus; details: phosphate buffer, no DES, pyruvate constant, PLP, pH 8.0, 40 °C
Source text: as §1

How did the Km (CC(=O)C(=O)O) turn out when “ω-TA variant from Aspergillus terreus (E133A) (Aspergillus terreus NIH2624; E133A)” was run?
Its Km is 640 ± 70 µM.

And the kcat (CC(=O)C(=O)O)?
Its kcat is 0.54967 ± 0.0005 s⁻¹.

And the kcat/Km (CC(=O)C(=O)O)?
The kcat/Km was 853 M⁻¹ s⁻¹.

What about the Km (C[C@@H](N)c1ccccc1) of the same substance?
The Km was 650 ± 70 µM.

And the kcat (C[C@@H](N)c1ccccc1)?
Its kcat is 0.8027 ± 0.000833 s⁻¹.

And the kcat/Km (C[C@@H](N)c1ccccc1)?
The kcat/Km was 1230 M⁻¹ s⁻¹.
